Test results published in patent US20150351390A1, “COMPOSITIONS AND METHODS FOR AUXIN-ANALOG CONJUGATION” (PIONEER HI-BRED INTERNATIONAL, INC., priority 2012, published 2015).

Legend:
[1] = LC-MS assay of GH3 conjugation of 2,4-D with Asp or Glu; assay type: biochemical; conditions: 5 mM 2,4-D substrate; for kcat (hrs−1) 2,4-D-Asp: conjugation of 2,4-D with Asp by recombinant GH3 protein, 2,4-D-Asp product by LC-MS; for kcat (hrs−1) 2,4-D-Glu: conjugation of 2,4-D with Glu by recombinant GH3 protein, 2,4-D-Glu product by LC-MS
Outline: (§1)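 Rxn: 20 mM Tris-HCl pH 8.0, 5 mM MgCl2, 1 mM DTT, 5 mM ATP, 5 mM auxin, 5 mM Asp/Glu, 44–164 μg/mL purified His-GH3; 30° C., 3 h. MeOH quench, supernatant diluted 20×, LC-MS vs conjugate standards.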

[2] = LC-MS assay of GH3 conjugation of IAA with Asp or Glu; assay type: biochemical; conditions: for kcat (hrs−1) IAA-Asp: conjugation of IAA with Asp by recombinant GH3 protein, IAA-Asp product by LC-MS; for kcat (hrs−1) IAA-Glu: conjugation of IAA with Glu by recombinant GH3 protein, IAA-Glu product by LC-MS
Outline: as §1

Molecule	kcat (hrs−1) 2,4-D-Asp [1]	kcat (hrs−1) 2,4-D-Glu [1]	kcat (hrs−1) IAA-Asp [2]	kcat (hrs−1) IAA-Glu [2]
OsGH3-4: GH3 protein, accession AAU90225 (protein, listed as Oryza sativa) MPEAVAAAVSPAAAAATAMCAEHREKLEHIERVTRNAGQEQRRVLEEILAQNAQAEYLRRLGVPGDAPGADEAFRRLAPLVTYEDILPDVLRIANGDTSPILSGKPVSEFLTSSGTSGGERKLMPTIEEEMERRSGLYSLLMPVMSRQVPGLDKGKAMYLYFVKSEWRTPGGLPARPVLTSFYRSRYFLERPHDPYTVYTSPDEAVLCEDAYQSMYAQLICGLVHRADVLRVGAVFASGFLRAIRFLEKHWPSLCRDIRAGELDGGVTDPAVRGAVGRVLRGADPALADAIEAECARPSWQGIIRRVWPSTKYIDVIVTGAMAQYIPTLEFYGGGLPLACTMYASSECYFGLNLNPMCKPSEVAYTLIPTMCYFEFLPVNSGANDVAAPEPDHRGLVDLVDVKLGHEYELVVTTYSGLYRYRVGDVLRVAGFKNAAPMFAFVRRKNVALSIDSDKTDEAELHAAVTEAVQHLAPFGASLVEYTSYADTATTIPGHYVLFWELRSPAGGTPVPASVFEDCCLAVEEGLNSVYRQCRAADRSIGPLEIRVVADGTFDKLMDYALSRGASINQYKAPRCVRPGPVVELLDGRVQATYFSPKCPKWCAGGNKQWISSGAAAKKTTTTCDSLAV	2.002 h⁻¹	0.254 h⁻¹	919.336 h⁻¹	17.854 h⁻¹
OsGH3-8: GH3 protein, accession Q0D4Z6 (protein, listed as Oryza sativa) MAVMTDVSTTGTALRTPAAGAVKEGDVEKLRFIDEMTTNVDAVQERVLGEILGRNAGTEYLTKCGLDGATDRAAFRAKVPVVSYDDLQPYIQRIANGDRSPILSTHPVSEFLTSSGTSAGERKLMPTIMDELDRRQLLYSLLMPVMNLYVPGLDKGKGLYFLFVKSETKTPGGLTARPVLTSYYKSDHFKNRPYDPYHNYTSPTAAILCADAFQSMYAQMVCGLCQRNDVLRLGAVFASGLLRAIRFLQLNWEQLADDIESGELTPRVTDPSVREAVAAILLPDPELAKLIRAECSKGDWAGIITRVWPNTKYLDVIVTGAMAQYIPTLEFYSGGLPMACTMYASSECYFGLNLRPMCDPSEVSYTIMPNMGYFEFLPVDETGAASGDATQLVDLARVEVGREYELVITTYAGLNRYRVGDVLRVTGFHNAAPQFRFVRRKNVLLSIESDKTDEAELQRAVERASALLRPHGASVVEYTSQACTKRIPGHYVIYWELLTKGAGATVVDADTLGRCCLEMEEALNTVYRQSRVADGSIGPLEIRVVRPGTFEELMDYAISRGASINQYKVPRCVTFPPIVELLDSRVVSSHFSPALPHWTPARRSE	2.917 h⁻¹	0.368 h⁻¹	578.598 h⁻¹	28.361 h⁻¹
SbEER99639: GH3 protein, accession EER99639 (protein, Sorghum bicolor) MAVMAEVVSTTGAALRSPASQPPPPPAAAAVKDADAEKLQFIEEMTSNVDAVQERVLGEILARNADTEYLAKYGITGASDRATFRAKVPMATYEDLQPYIRRIADGDRSPILSGHPVSEFLTSSGTSAGERKLMPTIEDELNRRQLLYSLQMPVMNLYVPGMDKGKALHFLFVKSETKTPGGLAARPVLTSYYKSNHFKNRPFDAYNNYTSPTAAILCADAFQSMYAQMVCGLCQRQDVLRVGAVFASGLLRAIRFLQLNWEQLADDIESGSLTPRITDPSVREAVAGILRPDPELASLVRSECSKGDWAGIITRIWPNTKYLDVIVTGAMAQYIPTLKYYSGGLPMACTMYASSECYFGLNLRPMCDPSEVSYTLMPNMCYFEFLPMDAAASGGGDASQLVDLARVEVGREYELVITTYAGLNRYRVGDVLQVTGFHNTAPQFRFVRRKNVLLSIESDKTDEAELQRAVERASALLRPHGAAVVEYTSQAYTKSIPGHYVIYWELLTKGPAAGAGAAVDRETLDRCCLEMEEALNTVYRQSRVADGSIGPLEIRVVRPGTFEELMDYAISRGASINQYKVPRCVTFPPIIELLDSRVVSTHFSPALPHWTPGQRSHSD	2.476 h⁻¹	0.457 h⁻¹	651.991 h⁻¹	31.110 h⁻¹
